# B1: EGF: Epidermal Growth Factor, EGFR ligand, produced by Becton Dickinson Corp. (protein)
# chain: PQHWSCPEGTLAGNGNSTCVGPAPFLIFSHGNSIFRIDTEGTNYEQLVVDAGVSVIMDFHYNEKRIYWVDLERQLLQRVFLNGSRQERVCNIEKNVSGMAINWINEEVIWSNQQEGIITVTDMKGNNSHILLSALKYPANVAVDPVERFIFWSSEVAGSLYRADLDGVGVKALLETSEKITAVSLDVLDKRLFWIQYNREGSNSLICSCDYDGGSVHISKHPTQHNLFAMSLFGDRIFYSTWKMKTIWIANKHTGKDMVRINLHSSFVPLGELKVVHPLAQPKAEDDTWEPEQKLCKLRKGNCSSTVCGQDLQSHLCMCAEGYALSRDRKYCEDVNECAFWNHGCTLGCKNTPGSYYCTCPVGFVLLPDGKRCHQLVSCPRNVSECSHDCVLTSEGPLCFCPEGSVLERDGKTCSGCSSPDNGGCSQLCVPLSPVSWECDCFPGYDLQLDEKSCAASGPQPFLLFANSQDIRHMHFDGTDYGTLLSQQMGMVYALDHDPVENKIYFAHTALKWIERANMDGSQRERLIEEGVDVPEGLAVDWIGRRFYWTDRGKSLIGRSDLNGKRSKIITKENISQPRGIAVHPMAKRLFWTDTGINPRIESSSLQGLGRLVIASSDLIWPSGITIDFLTDKLYWCDAKQSVIEMANLDGSKRRRLTQNDVGHPFAVAVFEDYVWFSDWAMPSVMRVNKRTGKDRVRLQGSMLKPSSLVVVHPLAKPGADPCLYQNGGCEHICKKRLGTAWCSCREGFMKASDGKTCLALDGHQLLAGGEVDLKNQVTPLDILSKTRVSEDNITESQHMLVAEIMVSDQDDCAPVGCSMYARCISEGEDATCQCLKGFAGDGKLCSDIDECEMGVPVCPPASSKCINTEGGYVCRCSEGYQGDGIHCLDIDECQLGEHSCGENASCTNTEGGYTCMCAGRLSEPGLICPDSTPPPHLREDDHHYSVRNSDSECPLSHDGYCLHDGVCMYIEALDKYACNCVVGYIGERCQYRDLKWWELRHAGHGQQQKVIVVAVCVVVLVMLLLLSLWGAHYYRTQKLLSKNPKNPYEESSRDVRSRRPADTEDGMSSCPQPWFVVIKEHQDLKNGGQPVAGEDGQAADGSMQPTSWRQEPQLCGMGTEQGCWIPVSSDKGSCPQVMERSFHMPSYGTQTLEGGVEKPHSLLSANPLWQQRALDPPHQMELTQ
# System: NCI-H292 cells
# Test: AB-PAS staining of mucus glycoprotein in NCI-H292 cells
# Assay type: cell-based, human
# Details: FIG. 1 and 2
# Procedure: NCI-H292 cells (human pulmonary mucoepidermoid tumor cell strain, purchased from ATCC) were suspended in 10% FCS (Fetal Calf Serum)-containing RPMI-1640 (produced by Gibco Corp.), sowed on a Lab-Tek 8 well chamber slide (produced by Nunc Corp.) in a density of 6.0×10^4 cells/cm^2, cultured for 72 hours, subjected to the replacement of the culture solution by RPMI-1640 containing 0.1% of BSA, and further cultured for 24 hours.
# On the day of the treatment, the culture solution of each well was replaced by RPMI-1640 (containing 0.1% BSA) containing EGF (5 ng/mL, produced by Becton Dickinson Corp.), HB-EGF (5 ng/mL, produced by R & D Corp.), TGF-α (5 ng/mL, produced by Peprotech Corp.), or PBS to start the treatment. Then, the cells were incubated at 37° C. for 24 hours.
# After the prescribed 24 hours treatment, the culture supernatant was removed. The residue was once washed with PBS, mixed with 4% paraformaldehyde/PBS, and then allowed to stand at room temperature for one hour to immobilize the cells. The immobilized cells were twice washed with Milli Q water and then stained with AB-PAS. The staining was carried out according to a book (“All of new dyeing methods” p136-150 (Iyaku Shuppansha)). […]
molecule,measurement,value
B1,production of the mucus glycoprotein,promoted

# — patent US20040038369A1, “Airway-specific trypsin-like enzymes and method of using the same” (priority 2000, published 2004)
